Laboratory results reported in patent US20230212218A1 (NAVIGO PROTEINS, published 2023).

Legend:
hIgG1-Fc [1] = target: T1, hIgG1-Fc (human, UniProt P01857-1 100-330 = IgG part, limits assumed); assay: SPR (Biacore) on hIgG1-Fc, one concentration, 1 µM
T1 construct: domain: Fc; treated as the same molecule; also called IgG1 Fc region; hIgG-Fc
Text: Analysis via label-free interaction assays using SPR spectroscopy (BIAcore). Change in refractive index measured in real time and plotted as response or resonance unit [RU] versus time [sec]. […] Solid line = Ig binding protein SEQ ID NO: 41; dotted line = Ig binding protein SEQ ID NO: 42.
A CM5 sensor chip (GE Healthcare) was equilibrated with SPR running buffer. Surface-exposed carboxylic groups were activated by passing a mixture of EDC and NHS to yield reactive ester groups. 700-1500 RU on-ligand were immobilized on a flow cell, off-ligand was immobilized on another flow cell. Injection of ethanolamine after ligand immobilization removes non-covalently bound Ig binding protein. Upon ligand binding, protein analyte was accumulated on the surface increasing the refractive index. This change in the refractive index was measured in real time and plotted as response or resonance units (RU) versus time. The analytes were applied to the chip in serial dilutions with a suitable flow rate (µl/min). After each run, the chip surface was regenerated with regeneration buffer and equilibrated with running buffer. The control samples were applied to the matrix. Regeneration and re-equilibration were performed as previously mentioned. […] Evaluated dissociation constants (KD) were standardized against off-target and KD values of different artificial Ig binding proteins for hIgG1-Fc (FIG. 2 and TABLE 6). […]

hIgG1-Fc [2] = target: T1, hIgG1-Fc; assay: SPR, Biacore 3000, 25 C, Langmuir 1:1 model
Text: (§1) A CM5 sensor chip (GE Healthcare) was equilibrated with SPR running buffer. Surface-exposed carboxylic groups were activated by passing a mixture of EDC and NHS to yield reactive ester groups. 700-1500 RU on-ligand were immobilized on a flow cell, off-ligand was immobilized on another flow cell. Injection of ethanolamine after ligand immobilization removes non-covalently bound Ig binding protein. Upon ligand binding, protein analyte was accumulated on the surface increasing the refractive index. This change in the refractive index was measured in real time and plotted as response or resonance units (RU) versus time. The analytes were applied to the chip in serial dilutions with a suitable flow rate (µl/min). After each run, the chip surface was regenerated with regeneration buffer and equilibrated with running buffer. The control samples were applied to the matrix. Regeneration and re-equilibration were performed as previously mentioned. Binding studies were carried out by the use of the Biacore® 3000 (GE Healthcare) at 25° C.; data evaluation was operated via the BIAevaluation 3.0 software, provided by the manufacturer, by the use of the Langmuir 1:1 model (RI=0). Evaluated dissociation constants (KD) were standardized against off-target and KD values of different artificial Ig binding proteins for hIgG1-Fc (FIG. 2 and TABLE 6). For example, the KD of SEQ ID NO: 41 (CID208846) and SEQ ID NO: 42 (CID208847) is in single-digit µM range vs. hIgG1-Fc.

hIgG1-Fc [3] = target: T1, hIgG1-Fc; assay: SPR, Biacore 3000
Text: as §1

Binder | Kd (hIgG1-Fc [2]) [nM] | also measured
SEQ ID NO: 41 (CID208846) (designed binder) ADNKFSQSANLLAEAKKLNDAQGGITEEQRNGFIQSLKDDIGASPMNKEQQNAFYEILHLPK | – | binding result (hIgG1-Fc [1]): binds
CID213246 (designed binder) ADNKFSQSANLLAEAKKLNDAQGGLTEEQRNGFIQSLKDDVRRVGSNKEQQNAFYEILHLPK | 248 | –
CID-210234 (designed binder, not tied in the text) ADNKFSQSANLLAEAKKLNDAQGGLTEEQRNGFIQSLKDDASEKGANKEQQNAFYEILHLPK | – | binding result (hIgG1-Fc [3]): binds
CID213191 (designed binder) ADNKFSQSANLLAEAKKLNDAQGGLTEEQRNGFIQSLKDDGTEGVHNKEQQNAFYEILHLPK | 132 | –
CID-213213 (designed binder, not tied in the text) ADNKFSQSANLLAEAKKLNDAQGGLTEEQRNGFIQSLKDDHTPTRGNKEQQNAFYEILHLPK | – | binding result (hIgG1-Fc [3]): binds
CID213215 (designed binder) ADNKFSQSANLLAEAKKLNDAQGGLTEEQRNGFIQSLKDDVRKLGPNKEQQNAFYEILHLPK | 190 | –
CID213278 (designed binder) ADNKFSQSANLLAEAKKLNDAQGGLTEEQRNGFIQSLKDDMNVGKHNKEQQNAFYEILHLPK | 199 | –
CID213224 (designed binder) ADNKFSQSANLLAEAKKLNDAQNGLTEEQRNGFIQSLKDDVRTNGANKEQQNAFYEILHLPK | 220 | –
CID-210240 (designed binder, not tied in the text) ADNKFSQSANLLAEAKKLNDAQGGLTEEQRNGFIQSLKDDPVLRGKPNKEQQNAFYEILHLPK | – | binding result (hIgG1-Fc [3]): binds
CID213235 (designed binder) ADNKFSQSANLLAEAKKLSDAQRGLTEEQRNGFIQSLKDDTKRHPKMNKEQQNAFYEILHLPK | 257 | –
CID210279 (designed binder) ADNKFSQSANLLAEAKKLNDAQGGLTEEQRNGFIQSLKDDTHPEDRQHNKEQQNAFYEILHLPK | 103 | –
CID-213276 (designed binder, not tied in the text) ADNKFSQSANLLAEAKKLNDAQGGITEEQRNGFIQSLKDDAKANPEANKEQQNAFYEILHLPK | – | binding result (hIgG1-Fc [3]): binds
CID213333 (designed binder) ADNKFSQSANLLAEAKKLNDAQGGITEEQRNGFIQSLKDDAKTNPGNNKEQQNAFYEILHLPK | 43 | –
CID210259 (designed binder) ADNKFSQSANLLAEAKKLNDAQGGITEEQRNGFIQSLKDDAKRNPMTNKEQQNAFYEILHLPK | 507 | –
CID213197 (designed binder) ADNKFSQSANLLAEAKKLNDAQGGLTEEQRNGFIQSLKDDTAANPTANKEQQNAFYEILHLPK | 84 | –
SEQ ID NO: 42 (CID208847) (designed binder) ADNKFSQSANLLAEAKKLNDAQGGLTEEQRNGFIQSLKDDVPAGVANNKEQQNAFYEILHLPK | – | binding result (hIgG1-Fc [1]): binds
